Reference: patent US5455271A, “Tight-binding inhibitors of leukotriene A4 hydrolase” (The Scripps Research Institute, priority 1993, dated 1995)

How the values were obtained:
[1] = target: cyclooxygenase; settings: read-out: IC50, cyclooxygenase production of PGD2; cited from earlier work
[2] = target: 5-lipoxygenase; settings: read-out: IC50, 5-lipoxygenase production of 5-HETE; cited from earlier work
[3] = test system: Leukotriene B4 (LTB4); assay: Inhibition of leukotriene B4 (LTB4) in calcium ionophore A-23187-stimulated human blood; format: cell-based; settings: Table 3 assay system
Protocol: Blood was drawn from a human volunteer, and a compound solution at one of three concentrations (Table 3) or a single concentration (Table 4), or solution alone (vehicle) was added to a one ml aliquot of the blood. After incubation for 15 minutes, 14 μg of calcium ionophore A-23187 (as the free acid) was added, and the incubation continued for another 15 minutes. The reactions were stopped by immersion of the containers into slush ice, and the samples were centrifuged at 11,000 ×g to pellet red cells and leukocytes. An aliquot of the plasma was then assayed for the presence of thromboxane B2 or leukotriene B4 by standard radioimmunoassay techniques.

[4] = substrate: N=C(N)NCCC[C@H](N)C(=O)Nc1ccc([N+](=O)[O-])cc1; assay: purified protein, by the assay type; settings: other: Table 1, 50 mM TrisCl, pH 7.6, 0.1 M NaCl
[5] = substrate: NCCCC[C@H](N)C(=O)Nc1ccc([N+](=O)[O-])cc1; assay: Kinetic parameters of LTA4 hydrolase-catalyzed hydrolysis of LTA4 and amide substrates; format: biochemical; settings: other: Table 1, 50 mM TrisCl, pH 7.6, 0.1 M NaCl
Protocol: (§1) Several amino acid amides were assayed as substrates for LTA4 hydrolase. Yuan et al., Bioorg. & Med. Chem. Lett., 1:551 (1991).
(§2) ^a Determined in 50 mM TrisCl, pH 7.6, in the presence of 0.1 M NaCl, […]

[6] = substrate: C[C@H](N)C(=O)Nc1ccc([N+](=O)[O-])cc1; assay: as above; format: biochemical; settings: other: Table 1, 50 mM TrisCl, pH 7.6, 0.1 M NaCl
Protocol: as §1, §2

[7] = substrate: O=C(Nc1ccc([N+](=O)[O-])cc1)[C@@H]1CCCN1; assay: as above; format: biochemical; settings: other: Table 1, 50 mM TrisCl, pH 7.6, 0.1 M NaCl
Protocol: as §1, §2

[8] = substrate: CCCCC/C=C\C\C=C/C=C/C=C/[C@@H]1O[C@H]1CCCC(=O)O; assay: as above; format: biochemical; settings: other: Table 1, 50 mM TrisCl, pH 7.6, 0.1 M NaCl
Protocol: as §1, §2

[9] = substrate: CC(C)C[C@H](N)C(=O)Nc1ccc([N+](=O)[O-])cc1; assay: as above; format: biochemical; settings: other: Table 1, 50 mM TrisCl, pH 7.6, 0.1 M NaCl
Protocol: as §1, §2

Molecule | IC50 [1] [nM] | IC50 [2] [nM] | potency in the blood eicosanoid assay (in words) [3] | Km [4] [µM] | Vmax [4] [nmol/min/mg] | Km [5] [µM] | Vmax [5] [nmol/min/mg] | Km [6] [µM] | Vmax [6] [nmol/min/mg] | Km [7] [µM] | Vmax [7] [nmol/min/mg] | Km [8] [µM] | Km [9] [µM] | Vmax [9] [nmol/min/mg]
COc1ccc(-n2nc(CCC(=O)N(C)O)cc2-c2ccc(Cl)cc2)cc1 [Tepoxalin] | 200 | 1290 | more potent than any compound in this table |  |  |  |  |  |  |  |  |  |  | 
LTA4 hydrolase (Homo sapiens) (protein) MPEIVDTCSLASPASVCRTKHLHLRCSVDFTRRTLTGTAALTVQSQEDNLRSLVLDTKDLTIEKVVINGQEVKYALGERQSYKGSPMEISLPIALSKNQEIVIEISFETSPKSSALQWLTPEQTSGKEHPYLFSQCQAIHCRAILPCQDTPSVKLTYTAEVSVPKELVALMSAIRDGETPDPEDPSRKIYKFIQKVPIPCYLIALVVGALESRQIGPRTLVWSEKEQVEKSAYEFSETESMLKIAEDLGGPYVWGQYDLLVLPPSFPYGGMENPCLTFVTPTLLAGDKSLSNVIAHEISHSWTGNLVTNKTWDHFWLNEGHTVYLERHICGRLFGEKFRHFNALGGWGELQNSVKTFGETHPFTKLVVDLTDIDPDVAYSSVPYEKGFALLFYLEQLLGGPEIFLGFLKAYVEKFSYKSITTDDWKDFLYSYFKDKVDVLNQVDWNAWLYSPGLPPIKPNYDMTLTNACIALSQRWITAKEDDLNSFNATDLKDLSSHQLNEFLAQTLQRAPLPLGHIKRMQEVYNFNAINNSEIRFRWLRLCIQSKWEDAIPLALKMATEQGRMKFTRPLFKDLAAFDKSHDQAVRTYQEHKASMHPVTAMLVGKDLKVD |  |  |  | 200 | 135 | 100 | 30 | 500 | 530 | 100 | 135 | 7.6 | 300 | 135
